{"source": "the nanobody polyreactivity screen of Harvey et al. (2022)", "data": [{"test": "yeast display, Sf9 membrane polyspecificity reagent, FACS + sequencing; frameworks hold sequencing errors", "summary_of_the_method": "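After 36–48 hours of galactose induction, yeast (Saccharomyces cerevisiae BJ5465) displaying a synthetic nanobody library were stained at 4 °C for 1 hour with 10% biotinylated, detergent-solubilized Sf9 membrane reagent. Streptavidin microbeads enriched the stained cells before FACS sorting into low and high (top ~1%) gates on anti-HA and streptavidin fluorescence. Each clone's polyreactivity label reflects its gate of origin.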", "values": [{"sequence": "QVQLVESGGGLVQAGGSLRLSCAASGRIFRYYAMGWYRQAPGKERELVAAISSGVGNTYYADSVKWRFTISRDNAKNTVYLQKNSLKPEDTAVYYCNAKWRKFGTVRYDYWGQGTQVTVSS", "polyreactivity (PSR sort gate)": "high polyreactivity"}, {"sequence": "QVQLVESGGGLVQAGGSLRLSCAASGRIFRYYAMGWYRQAPGKERELVADSTRGGGSTYYADSVKGRFTISRDNAKNTVYLQMNSLKPEDTAVYYCAKDGSGGLPVLYRYRYDYWGQGTQVTVSS", "polyreactivity (PSR sort gate)": "high polyreactivity"}, {"sequence": "QVQLVESGGGLVQAGGSLRLSCAASGRIFRYYAMGWYRQAPGKERELVAGISRSGGRTYYADSVKGRFTISRDNAKNTVYLQMNSLKPEDTAVYYCNASRGYPYHYDYWGQGTQVTVSS", "polyreactivity (PSR sort gate)": "high polyreactivity"}, {"sequence": "QVQLVESGGGLVQAGGSLRLSCAASGRIFRYYSMGWYRQAPGKERELVAAISGGGSTYYADSVKGRFTISRDNAKNTVYLQMNSLKPEDTAVYYCAALRSSQSKGDYWGQGTQVTVSS", "polyreactivity (PSR sort gate)": "high polyreactivity"}, {"sequence": "QVQLVESGGGLVQAGGSLRLSCAASGRIFRYYTMGWYRQAPGKERELVAAIRLAGSTTYYADSVKGRFTISRDNAKNTVYLQMNSLNPEDSAVYSCTTRYPVPSGYDYWGHGTQVTVSS", "polyreactivity (PSR sort gate)": "high polyreactivity"}, {"sequence": "QVQLVESGGGLVQAGGSLRLSCAASGRIFRYYTMGWYTPAPGNERELVAAISSSGGRTYYADSVKGRFTISRDNAKNTVYLQMNSLKPEDTAVYYCNAYRRFSAFDYWGQGTQVTVTS", "polyreactivity (PSR sort gate)": "high polyreactivity"}, {"sequence": "QVQLVESGGGLVQAGGSLRLSCAASGRIFSAYAMGWYRQAPGKEREFVAAISSRGGSTNYADSVKGRFTISRDNANNTVYLHMNSLKPEDTAVYYCNARYVQWYWIGKVIHIDNDYWGQGTQVNVSS", "polyreactivity (PSR sort gate)": "low polyreactivity"}, {"sequence": "QVQLVESGGGLVQAGGSLRLSCAASGRIFSAYVMGWYRQAPGKERELVAAISSGGSRTSYADSVKGRVTISRDNAKNTVYLQMISLKPEDTAVYYCAASATFWGQGTQVNVSS", "polyreactivity (PSR sort gate)": "high polyreactivity"}, {"sequence": "QVQLVESGGGLVQAGGSLRLSCAASGRIFSDYAMGWYRQAPGKERELVATISASGGSTYYADSVKGRFTVSRDNAKNSVYLQMNSLKPEDTAVYYCAGDYEGYNFDYWGQGTQVTVSS", "polyreactivity (PSR sort gate)": "low polyreactivity"}, {"sequence": "QVQLVESGGGLVQAGGSLRLSCAASGRIFSEYAMGWYRQAPGKERELVAAISRRGGRTYYADSVKGRFTISRDNAKNTVYLQMNSLKPEETAVYYCAAKIIWFTIRHGSAGFKYWGQGTQVTVSS", "polyreactivity (PSR sort gate)": "high polyreactivity"}, {"sequence": "QVQLVESGGGLVQAGGSLRLSCAASGRIFSFNAMGWYRQAPGKERELVASGGSTYADSVKGRFTISRDNAKNTVYLQMNSLKPEETAVYYCAADPFYYFPSPFDYWGQGTQVTVSS", "polyreactivity (PSR sort gate)": "low polyreactivity"}, {"sequence": "QVQLVESGGGLVQAGGSLRLSCAASGRIFSFYAMGWKRQAPGKERELVAAITWGDGSTYYADSVKGRFTISRDNAKNTVYLQMNSLKPEDTAVYYCNKTYIDTTVYDVIMDYWGQGTQVTVSS", "polyreactivity (PSR sort gate)": "low polyreactivity"}, {"sequence": "QVQLVESGGGLVQAGGSLRLSCAASGRIFSFYAMGWYRQAPGKERELVAAITYTDGSTYADSVKGRFTISRDNAKNTVYLQMNSLKPEDTAVYYCATRYRWTPYDYWGQGTQVTVSS", "polyreactivity (PSR sort gate)": "low polyreactivity"}, {"sequence": "QVQLVESGGGLVQAGGSLRLSCAASGRIFSGNAMGWYRQAPGKERELVAAISWSGGSTYYADSVKGRFTISRDNAKNSVYLQMNSLKPEDTAVSYCNAPGYRRYGSRMGYWGQGTQVTVSS", "polyreactivity (PSR sort gate)": "high polyreactivity"}, {"sequence": "QVQLVESGGGLVQAGGSLRLSCAASGRIFSGYAMGWYRQATGKERELVAAITSVGSTNYADSVKGRFTISRDNAKNTVYLQMNSLKPEDTAVYYCAARSQIYYRYRSYGYWGQGTQVTVSS", "polyreactivity (PSR sort gate)": "high polyreactivity"}, {"sequence": "QVQLVESGGGLVQAGGSLRLSCAASGRIFSGYTMGWYRQAPGKERELVAAITRSGGSTYYADSVKGRFTISRDNAKNTVYLQMISLKPEDTAVYYCNKVSYRHMDSWGQGTQVTVSS", "polyreactivity (PSR sort gate)": "high polyreactivity"}, {"sequence": "QVQLVESGGGLVQAGGSLRLSCAASGRIFSHNAMGWYRQAPGKERELVAAITGSGGTTYYADSVKGRFKISRDNAKNTVYLQMNSLKPEDTAVYYCAADWQQLSYVWRSQRRYNYWGQGTQVTVSS", "polyreactivity (PSR sort gate)": "low polyreactivity"}, {"sequence": "QVQLVESGGGLVQAGGSLRLSCAASGRIFSIYAMGWYRQAPGKEREFVAAITQSGGSTYYADSVKGRFTISRDNAKNTVYLQMNSLKPEDTAVYYCAADEWGVRSEYDYWGQGTQVTVSS", "polyreactivity (PSR sort gate)": "low polyreactivity"}, {"sequence": "QVQLVESGGGLVQAGGSLRLSCAASGRIFSIYAMGWYRQAPVKERELVAAISKRGGSTSYADSVKGRFTISRDNAKNTVYLQMNSLKPEDTAVYYCNARGWIPARGWDDYYWGQGTQVTVSS", "polyreactivity (PSR sort gate)": "high polyreactivity"}, {"sequence": "QVQLVESGGGLVQAGGSLRLSCAASGRIFSIYGMGWYRQAPGKEREFVASITYSGGSTYYADSVKGRFTISRDYAKNTVYLQMNSLKPEDTAVYYCNADIEKSYNYWGQGTQVTVSS", "polyreactivity (PSR sort gate)": "low polyreactivity"}, {"sequence": "QVQLVESGGGLVQAGGSLRLSCAASGRIFSIYGMGWYRQAPGKERELVAVISGSVAITYYADSVKGRFTISRDNAKNTVYLQMNSLKPEDTAVYYCAAVYQSRLWARYYYWGQGSQVTVSS", "polyreactivity (PSR sort gate)": "high polyreactivity"}, {"sequence": "QVQLVESGGGLVQAGGSLRLSCAASGRIFSIYGMGWYRQAPGKERELVAVISGSVGITYYADSVKGRFTISRDNAKNTVYLQMNSLKPEDTAVYYCNAKFRRRKYDYWGQGTQVTVSS", "polyreactivity (PSR sort gate)": "high polyreactivity"}, {"sequence": "QVQLVESGGGLVQAGGSLRLSCAASGRIFSKYAMGWYRQAPGKERELVAAIRSGGRTYYADSVKGRFTISRDNAKNTVYLQMNSLKPEDTAVYYCAKGTFRYPFSFTFLGYDYWGQGTQVTVSS", "polyreactivity (PSR sort gate)": "high polyreactivity"}, {"sequence": "QVQLVESGGGLVQAGGSLRLSCAASGRIFSLYAMGWYRQAPGKERELVAAISWSGGTTYDADSVKGRFTISRDNAKNTVYLQMNSLKPEDTAVYYCAAQYIGKKRFNYWGQGTQVTVSS", "polyreactivity (PSR sort gate)": "high polyreactivity"}, {"sequence": "QVQLVESGGGLVQAGGSLRLSCAASGRIFSNNAMGWYRQAPGKERELVATITGSGGRTYYADSVKGRFTISRDIAKNSVYLQMNSLKPEDTAVYYCNADLYSYYWRVRYGLDYWGQGTQVTVSS", "polyreactivity (PSR sort gate)": "high polyreactivity"}, {"sequence": "QVQLVESGGGLVQAGGSLRLSCAASGRIFSNYAMGWYRHAPGKEREFVAAISGSGGITYYADSVKGRFTISRDNAKNTFYLQMNSLKPEDTAVYYCARRLHYVPLISYNYWGQGTQVTVSS", "polyreactivity (PSR sort gate)": "low polyreactivity"}, {"sequence": "QVQLVESGGGLVQAGGSLRLSCAASGRIFSNYAMGWYRQAPGKERELVAAISRGGGRTFYADSVKGRFTISRDNAKNTVYLQMNSLKPEDTAVYYCATRSYYVKGDYWGQGTQVNVSS", "polyreactivity (PSR sort gate)": "high polyreactivity"}, {"sequence": "QVQLVESGGGLVQAGGSLRLSCAASGRIFSPNAMGWYRQAPGKERELVAAITRGGSTNYADSVKGRFTISRDNAKNTVYLQMNSLKPEDTAVYYCAAQLAKTIRGRGYNSWGQGTKVTVSS", "polyreactivity (PSR sort gate)": "low polyreactivity"}, {"sequence": "QVQLVESGGGLVQAGGSLRLSCAASGRIFSQNAMGWYRKAPGKERELVAAIRYSTGSTYYADSVKGRFTISRDNAKNTVYLQMNSLKPEDTAVYYCAADRWVSGYRRPRRGQAHYYWGQGTQVTVSS", "polyreactivity (PSR sort gate)": "high polyreactivity"}, {"sequence": "QVQLVESGGGLVQAGGSLRLSCAASGRIFSQYAMGWYRQAPGKERELVAAISRRTGSTYYADSVKVRFTISRDNAKNTVYLQMNSLKPDDTAVYFCNKARLGWSYRQDDYWGQGTQVTVSS", "polyreactivity (PSR sort gate)": "high polyreactivity"}, {"sequence": "QVQLVESGGGLVQAGGSLRLSCAASGRIFSRNAMGWYRKAPGKERELVATISAGGGRTSYADSVKGRFTISRDNAKNTVYLQMNSLKPEDTADYYCAARGQVGYYWGQGTQVTVSS", "polyreactivity (PSR sort gate)": "high polyreactivity"}, {"sequence": "QVQLVESGGGLVQAGGSLRLSCAASGRIFSRNAMGWYRQAPGKERDLVAAITWRGGSTNYADSVKGRFTISRDNAKNTVYLQMNSLKPEDTAVYYCAARISRYPQDDSDYWGQGTQVTVSS", "polyreactivity (PSR sort gate)": "high polyreactivity"}, {"sequence": "QVQLVESGGGLVQAGGSLRLSCAASGRIFSRNAMGWYRQAPGKERELVAAISGSGTSTYYAVSVKGRFTISRDNAKNTVYLQMNSLKPEDTAVSYCAADYPAVISIRRYDYWGQGTQVTVSS", "polyreactivity (PSR sort gate)": "low polyreactivity"}, {"sequence": "QVQLVESGGGLVQAGGSLRLSCAASGRIFSRNAMGWYRQAPGKERELVAAITRIGGSTYYADSVKGRFTISRDTAKNTVYLQMNSRKPEDTAVYYSAARGSGKYGWGQGTQVTVSS", "polyreactivity (PSR sort gate)": "high polyreactivity"}, {"sequence": "QVQLVESGGGLVQAGGSLRLSCAASGRIFSRNTMGWYRQAPGKERELVATISWSGSRTYYADSVKGRFTISRDNAKNTVYLQMNSLKPEDTAVYYCAARLWPSYLSYGKTGDYWGQGTQVTVSS", "polyreactivity (PSR sort gate)": "high polyreactivity"}, {"sequence": "QVQLVESGGGLVQAGGSLRLSCAASGRIFSRYALGWYRQAPGQERELDAAINKSGGSTYYADSVKGRFTISRDNAKNTVYFQMKSMKAEDTAVYYCTAVYYWYKGDYWGQGTQVTVSS", "polyreactivity (PSR sort gate)": "high polyreactivity"}, {"sequence": "QVQLVESGGGLVQAGGSLRLSCAASGRIFSRYAMGWYRQAPGKERELVAAINKSGGSTYYADSVKGRFTISRDNAKNTVYLQMNSLKPEDTAVYYCAAALGRRRTGYDYWGQGTQGTVSS", "polyreactivity (PSR sort gate)": "high polyreactivity"}, {"sequence": "QVQLVESGGGLVQAGGSLRLSCAASGRIFSRYAMGWYRQAPGKERELVAAIRWSGGRTYYADSVKGRFTISRDNAKNTVYLQMNSLKPEDTAVYYCAKYRYTVAGYNYWGQGTQVTVSS", "polyreactivity (PSR sort gate)": "high polyreactivity"}, {"sequence": "QVQLVESGGGLVQAGGSLRLSCAASGRIFSRYAMGWYRQAPGKERELVAAISRAASTNYADSVKGRFTISRDNAKNTVYLQMNSLKPEDTAVYYCNKRLYGYYGRYDYWGQGTQVTVSS", "polyreactivity (PSR sort gate)": "low polyreactivity"}, {"sequence": "QVQLVESGGGLVQAGGSLRLSCAASGRIFSRYAMGWYRQAPGKERELVAGITRSGTTTYYADSVKGRFTISRDNAKNTVYLQMNSLKPEDTAVYYCAAPPIRPNLYDYWGQGTQVTVSS", "polyreactivity (PSR sort gate)": "high polyreactivity"}, {"sequence": "QVQLVESGGGLVQAGGSLRLSCAASGRIFSRYAMGWYRQAPVKERELVATITRSGARTYYADSVKGRFTISRDNAKNTVYLQMNSLKPEDTAVYYCATPYKYVTGEDYWGQGTQVTVSS", "polyreactivity (PSR sort gate)": "high polyreactivity"}, {"sequence": "QVQLVESGGGLVQAGGSLRLSCAASGRIFSRYAMVWYRQAPGKERELVAAINKSGGSTYYADSVKGRFTISRDNAKNTVYLQMNSLKPEDTAVYYCNAVYYWYKGDYWGQGTQVTVSS", "polyreactivity (PSR sort gate)": "high polyreactivity"}, {"sequence": "QVQLVESGGGLVQAGGSLRLSCAASGRIFSRYVMGWYRQAPGKERELVAAISWNGGSTYYADSVKGRFRISRDNAKNTVYLQMNSLKPEDTAVYYCAARVRVTGTYYTKYDYWGQGTQVTVSS", "polyreactivity (PSR sort gate)": "high polyreactivity"}]}]}
